Test system: Arabidopsis thaliana T1 plants
Assay: Topramezone tolerance of transgenic Arabidopsis thaliana T1 plants (pesticide damage grade by bleached leaf area, score, resistance evaluation)
Assay type: in vivo
Design: score: scale not given here
Details: for Classification and statistics of the grade of pesticide damage Grade 0 / Classification and statistics of the grade of pesticide damage Grade 1 / Classification and statistics of the grade of pesticide damage Grade 2 / Classification and statistics of the grade of pesticide damage Grade 3 / Classification and statistics of pesticide damage grade Grade 0 / Classification and statistics of pesticide damage grade Grade 1 / Classification and statistics of pesticide damage grade Grade 2 / Classification and statistics of pesticide damage grade Grade 3: number of plants (of 16) in this grade; for Classification and statistics of the grade of pesticide damage Grade 0 / Classification and statistics of the grade of pesticide damage Grade 1 / Classification and statistics of the grade of pesticide damage Grade 2 / Classification and statistics of the grade of pesticide damage Grade 3 / Scores / Resistance evaluation / Classification and statistics of pesticide damage grade Grade 0 / Classification and statistics of pesticide damage grade Grade 1 / Classification and statistics of pesticide damage grade Grade 2 / Classification and statistics of pesticide damage grade Grade 3: 7 DAT
Source text: The Arabidopsisthaliana T1 plants into which the AsHPPDm-F372A-02 nucleotide sequence was introduced, Arabidopsis thaliana T1 plants into which the AsHPPD-02 nucleotide sequence was introduced and wild-type Arabidopsisthaliana plants (18 days after sowing) were sprayed with topramezone at four different concentrations, i.e., 25 g ai/ha (one-fold field concentration, 1×), 50 g ai/ha (two-fold field concentration, 2×), 100 g ai/ha (four-fold field concentration, 4×) and 0 g ai/ha (water, 0×) to determine the tolerance of Arabidopsisthaliana to the herbicide. The degree of damage caused by the herbicide was measured for each plant according to the proportion of bleached leaf area (the proportion of bleached leaf area=bleached leaf area/total leaf area×100%) 7 days after spraying (7 DAT): the case where there is basically no bleached phenotype is defined as grade 0, the case where the proportion of bleached leaf area is less than 50% is defined as grade 1,the case where the proportion of bleached leaf area is more than 50% is defined as grade 2, and the case where the proportion of bleached leaf area is 100% grade is defined as grade 3.
(§1) According to the method as described above in point 6 of Example 1, the aforementioned Arabidopsisthaliana T1 plants and wild-type Arabidopsisthaliana plants (18 days after sowing) were sprayed with topramezone at three different concentrations respectively, i.e., 25 g ai/ha (one-fold field concentration, 1×), 100 g ai/ha (four-fold field concentration, 4×) and 0 g ai/ha(water, 0×) to detect the tolerance of Arabidopsisthaliana to the herbicide.
as §1, with “1x),” for “1×),”, “4x)” for “4×)”, “ai/ha (water, 0x)” for “ai/ha(water, 0×)”
According to the method as described above in point 6 of Example 1, the above-mentioned Arabidopsisthaliana T1 plants, Arabidopsisthaliana T1 plants into which the AsHPPD-02 nucleotide sequence was introduced, Arabidopsisthaliana T1 plants into which the PfHPPD-02 nucleotide sequence was introduced, and wild-type Arabidopsisthaliana plants (18 days after sowing) were sprayed with topramezone at four different concentrations respectively, that is, 25 g ai/ha (one-fold field concentration, 1x), 50 g ai/ha (two-fold field concentration, 2x), 100 g ai/ha (four-fold field concentration, 4x) and 0 g ai/ha (water, Ox) to detect the herbicide tolerance of Arabidopsisthaliana.
According to the method as described in point 6 of Example 1, the above-mentioned Arabidopsisthaliana T1 plants and wild-type Arabidopsisthaliana plants (18 days after sowing) were sprayed with topramezone at two different concentrations respectively, that is, 25 g ai/ha (one-fold field concentration, 1x) and 100 g ai/ha (four-fold field concentration, 4x) to detect the herbicide tolerance of Arabidopsisthaliana,. […]

[1] = non-372 position mutants, number of plants (of 20) in this grade, topramezone 25 g ai/ha (1x)
[2] = non-372 position mutants, number of plants (of 20) in this grade, topramezone 100 g ai/ha (4x)
[3] = topramezone 25 g ai/ha (1x), HPPD from Avena sativa source
[4] = topramezone 25 g ai/ha (1x), number of plants, HPPD from Avena sativa source
[5] = topramezone 25 g ai/ha, mutation combination, Table 8
[6] = topramezone 50 g ai/ha (2x), HPPD from Avena sativa source
[7] = topramezone 50 g ai/ha (2x), number of plants, HPPD from Avena sativa source
[8] = topramezone 100 g ai/ha (4x), HPPD from Avena sativa source
[9] = topramezone 100 g ai/ha (4x), number of plants, HPPD from Avena sativa source
[10] = topramezone 100 g ai/ha, mutation combination, Table 8
[11] = HPPDs from different species, topramezone 25 g ai/ha (1x)
[12] = HPPDs from different species, topramezone 100 g ai/ha (4x)

B1: AsHPPD-02: Avena sativa native HPPD, SEQ ID NO: 1; gene SEQ ID NO: 3 (protein, listed as Avena sativa)
chain: MPPTPATATGAAAAAVTPEHAARSFPRVVRVNPRSDRFPVLSFHHVELWCADAASAAGRFSFALGAPLAARSDLSTGNSAHASLLLRSGALAFLFTAPYAPPPQEAATAAATASIPSFSADAARTFAAAHGLAVRSVGVRVADAAEAFRVSVAGGARPAFAPADLGHGFGLAEVELYGDVVLRFVSYPDETDLPFLPGFERVSSPGAVDYGLTRFDHVVGNVPEMAPVIDYMKGFLGFHEFAEFTAEDVGTTESGLNSVVLANNSEAVLLPLNEPVHGTKRRSQIQTYLEYHGGPGVQHIALASNDVLRTLREMRARTPMGGFEFMAPPQAKYYEGVRRIAGDVLSEEQIKECQELGVLVDRDDQGVLLQIFTKPVGDRPTFFLEMIQRIGCMEKDEVGQEYQKGGCGGFGKGNFSELFKSIEDYEKSLEVKQSVVAQKS
modifications: AsHPPD Amido Acid Sequence
- tolerance to topramezone, in words (Arabidopsis thaliana T1 plants sprayed with topramezone): no or relatively low tolerance
- Grade 0 [1]: 0
- Grade 1 [1]: 5
- Grade 2 [1]: 13
- Grade 3 [1]: 2
- Grade 0 [2]: 0
- Grade 1 [2]: 0
- Grade 2 [2]: 4
- Grade 3 [2]: 16
- score (non-372 position mutants, score for pesticide damage 0-100, topramezone 25 g ai/ha (1x)): 62
- score (non-372 position mutants, score for pesticide damage 0-100, topramezone 100 g ai/ha (4x)): 93
- Resistance Grade (non-372 position mutants, topramezone 25 g ai/ha (1x)): poorly resistant (poorly resistant plants (scores 34-67))
- Resistance Grade (non-372 position mutants, topramezone 100 g ai/ha (4x)): non-resistant (non-resistant plants (scores 68-100))
- Classification and statistics of the grade of pesticide damage Grade 0 (topramezone 25 g ai/ha (1x)): 0
- Classification and statistics of the grade of pesticide damage Grade 1 (topramezone 25 g ai/ha (1x)): 4
- Classification and statistics of the grade of pesticide damage Grade 2 (topramezone 25 g ai/ha (1x)): 12
- Classification and statistics of the grade of pesticide damage Grade 3 (topramezone 25 g ai/ha (1x)): 0
- Classification and statistics of the grade of pesticide damage Grade 0 (topramezone 50 g ai/ha (2x)): 0
- Classification and statistics of the grade of pesticide damage Grade 1 (topramezone 50 g ai/ha (2x)): 0
- Classification and statistics of the grade of pesticide damage Grade 2 (topramezone 50 g ai/ha (2x)): 6
- Classification and statistics of the grade of pesticide damage Grade 3 (topramezone 50 g ai/ha (2x)): 10
- Classification and statistics of the grade of pesticide damage Grade 0 (topramezone 100 g ai/ha (4x)): 0
- Classification and statistics of the grade of pesticide damage Grade 1 (topramezone 100 g ai/ha (4x)): 0
- Classification and statistics of the grade of pesticide damage Grade 2 (topramezone 100 g ai/ha (4x)): 4
- Classification and statistics of the grade of pesticide damage Grade 3 (topramezone 100 g ai/ha (4x)): 12
- tolerance to topramezone, in words (saturation mutation of HPPD from Avena sativa source (label F372X = AsHPPDm-F372X), topramezone 25, 50, 100 g ai/ha): no or low tolerance
- Scores (score for pesticide damage 0-100, topramezone 25 g ai/ha (1x)): 58
- Scores (score for pesticide damage 0-100, topramezone 50 g ai/ha (2x)): 88
- Scores (score for pesticide damage 0-100, topramezone 100 g ai/ha (4x)): 92
- Resistance evaluation (topramezone 25 g ai/ha (1x)): poorly resistant (poorly resistant plants (scores 34-67))
- Resistance Grade [3]: Poorly resistant
- score [3]: 57
- Grade 0 [4]: 2
- Grade 1 [4]: 2
- Grade 2 [4]: 16
- Grade 3 [4]: 0
- Grade 0 (number of plants) [5]: 2
- Grade 1 (number of plants) [5]: 2
- Grade 2 (number of plants) [5]: 16
- Grade 3 (number of plants) [5]: 0
- Resistance Grade [5]: Poorly resistant
- score [5]: 57
- Resistance evaluation (topramezone 50 g ai/ha (2x)): non-resistant (non-resistant plants (scores 68-100))
- Resistance Grade [6]: Non-resistant
- score [6]: 87
- Grade 0 [7]: 0
- Grade 1 [7]: 2
- Grade 2 [7]: 4
- Grade 3 [7]: 14
- Resistance evaluation (topramezone 100 g ai/ha (4x)): non-resistant (non-resistant plants (scores 68-100))
- Resistance Grade [8]: Non-resistant
- score [8]: 93
- Grade 0 [9]: 0
- Grade 1 [9]: 0
- Grade 2 [9]: 4
- Grade 3 [9]: 16
- Grade 0 (number of plants) [10]: 0
- Grade 1 (number of plants) [10]: 0
- Grade 2 (number of plants) [10]: 4
- Grade 3 (number of plants) [10]: 16
- Resistance Grade [10]: Non-resistant
- score [10]: 93

B2: PfHPPD-02: native Pseudomonas fluorescens HPPD, SEQ ID NO: 27 (protein, listed as Pseudomonas fluorescens)
chain: MADLYENPMGLMGFEFIEFASPTPGTLEPIFEIMGFTKVATHRSKNVHLYRQGEINLILNNEPNSIASYFAAEHGPSVCGMAFRVKDSQKAYNRALELGAQPIHIDTGPMELNLPAIKGIGGAPLYLIDRFGEGSSIYDIDFVYLEGVERNPVGAGLKVIDHLTHNVYRGRMVYWANFYEKLFNFREARYFDIKGEYTGLTSKAMSAPDGMIRIPLNEESSKGAGQIEEFLMQFNGEGIQHVAFLTDDLVKTWDALKKIGMRFMTAPPDTYYEMLEGRLPDHGEPVDQLQARGILLDGSSVEGDKRLLLQIFSETLMGPVFFEFIQRKGDDGFGEGNFKALFESIERDQVRRGVLTAD
modifications: PfHPPD Amino Acid Sequence
- Classification and statistics of pesticide damage grade Grade 0 [11]: 0
- Classification and statistics of pesticide damage grade Grade 1 [11]: 0
- Classification and statistics of pesticide damage grade Grade 2 [11]: 0
- Classification and statistics of pesticide damage grade Grade 3 [11]: 16
- Classification and statistics of pesticide damage grade Grade 0 [12]: 0
- Classification and statistics of pesticide damage grade Grade 1 [12]: 0
- Classification and statistics of pesticide damage grade Grade 2 [12]: 0
- Classification and statistics of pesticide damage grade Grade 3 [12]: 16
- Scores (HPPDs from different species, score for pesticide damage 0-100, topramezone 25 g ai/ha (1x)): 100
- Scores (HPPDs from different species, score for pesticide damage 0-100, topramezone 100 g ai/ha (4x)): 100
- Resistance evaluation [11]: non-resistant (non-resistant plants (scores 68-100))
- Resistance evaluation [12]: non-resistant (non-resistant plants (scores 68-100))
- tolerance to topramezone, in words (saturation mutation of HPPD from Pseudomonas fluorescens source (label F372X = PfHPPDm-F372X), topramezone 25, 50, 100 g ai/ha): no tolerance
- Grade 0 (number of plants) [5]: 0
- Grade 1 (number of plants) [5]: 0
- Grade 2 (number of plants) [5]: 0
- Grade 3 (number of plants) [5]: 20
- Resistance Grade [5]: Non-resistant
- score [5]: 100
- Grade 0 (number of plants) [10]: 0
- Grade 1 (number of plants) [10]: 0
- Grade 2 (number of plants) [10]: 0
- Grade 3 (number of plants) [10]: 20
- Resistance Grade [10]: Non-resistant
- score [10]: 100

Reference: US20230212587A1, “Mutant Hydroxyphenylpyruvate Dioxygenase Polypeptide, Encoding Gene Thereof and Use Therefor” (Beijing Dabeinong Biotechnology Co., Ltd., priority 2019, published 2023)
